Results reported in publication PMC11869522, “Competitive displacement of lipoprotein lipase from heparan sulfate is orchestrated by a disordered acidic cluster in GPIHBP1” (Journal of Lipid Research, 2025).

Test system: bLPL
Assay: PCSK3 cleavage of LPL (SDS-PAGE densitometry)
Assay type: biochemical, bovine
Conditions: 20 μM bLPL, 4 units PCSK3, 2 μM ANGPTL4, no GPIHBP1; 25°C, pH 7.0; 110 min without ANGPTL4
Procedure: To determine if charge-variants of GPIHBP1 confer distinct resistance to ANGPTL4-facilitated cleavage of LPL after Arg^324 by PCSK3 ([33]), we incubated purified bLPL (20 μM) with PCSK3 (4 units) for 0–240 min, either alone or in the presence of ANGPTL4 (2 μM) and/or GPIHBP1 (25 μM) at 25°C in 10 mM 2-(N-morpholino) ethane sulfonic acid (MES), 150 mM NaCl, 1 mM CaCl2, pH 7.0. We tested four different GPIHBP1 variants: GPIHBP1^1–131, GPIHBP1^Cluster1-neutral, GPIHBP1^Cluster2-neutral, and GPIHBP1^34–131 (LU domain only). PCSK3 cleavage was stopped by boiling in SDS-PAGE sample buffer (reduced and alkylated) and the degree of cleavage was assessed by SDS-PAGE using 12% Bis-Tris SDS-PAGE gels followed by densitometric scanning of the corresponding Coomassie blue–stained SDS-polyacrylamide gels.
Secretion of LPL by adipocytes is modulated in an autocrine manner by ANGPTL4. […] In the presence of endogenous ANGPTL4, a significant fraction of LPL was cleaved by PCSK3 in the trans-Golgi compartment. […] The presence of GPIHBP1 dramatically delayed PCSK3 cleavage of LPL ([33]). To assess the role of the acidic tail in GPIHBP1 on this delay, we incubated 20 μM bLPL with 4 units of PCSK3 either alone or in the presence of 2 μM ANGPTL4. We observed that the presence of sub-stoichiometric amounts of ANGPTL4 reduced the half-life of intact bLPL from 110 min to less than 5 min (Fig. 5A). […] Our results emphasized the essential role of GPIHBP1’s acidic tail in protecting LPL against ANGPTL4-induced cleavage by PCSK3.
Fig. 5 GPIHBP1 reduces ANGPTL4-facillitated PSCK3 cleavage of LPL. 20 μM bLPL was incubated with 4 units of PSCK3 for 0–240 min at 25°C and the extent of LPL cleavage after Arg^324 was assessed by densitometric scanning of Coomassie–blue stained polyacrylamide after SDS-PAGE of reduced and alkylated samples. A: PSCK3 cleavage of LPL is accelerated by the presence of 2 μM ANGPTL4—present at sub-stoichiometric amounts compared to bLPL (20 μM). 25 μM intact GPIHBP1, but not GPIHBP1^34–131 mitigates PSCK3 cleavage of LPL. B: Both GPIHBP1^Cluster1-neutral and GPIHBP1^Cluster2-neutral rescue LPL from cleavage by PSCK3 in the absence of ANGPTL4 and both are more efficient than GPIHBP1^34–131. C: in the presence of 2 μM ANGPTL4, 25 μM GPIHBP1^Cluster1-neutral protects LPL from PSCK3 cleavage more efficiently than the GPIHBP1^Cluster2-neutral, which indicates a more prominent role of acidic cluster 2 in protecting LPL from ANGPTL4-catalyzed unfolding and subsequent PSCK3 cleavage. Shown are the mean values (±SEM) for intact LPL relative to that present at time 0 min for 3–5 independent time-course experiments. Some curves appear in multiple panels to increase clarity.

B1: ANGPTL4: Coiled-coil domain of ANGPTL4 (residues 1–159, N-terminal methionine, C-terminal 6× His-tag) produced in E. coli (protein, UniProt Q9BY76 26-406, looked up)
Angiopoietin-related protein 4: GPVQSKSPRFASWDEMNVLAHGLLQLGQGLREHAERTRSQLSALERRLSACGSACQGTEGSTDLPLAPESRVDPEVLHSLQTQLKAQNSRIQQLFHKVAQQQRHLEKQHLRIQHLQSQFGLLDHKHLDHEVAKPARRKRLPEMAQPVDPAHNVSRLHRLPRDCQELFQVGERQSGLFEIQPQGSPPFLVNCKMTSDGGWTVIQRRHDGSVDFNRPWEAYKAGFGDPHGEFWLGLEKVHSITGDRNSRLAVQLRDWDGNAELLQFSVHLGGEDTAYSLQLTAPVAGQLGATTVPPSGLSVPFSTWDQDHDLRRDKNCAKSLSGGWWFGTCSHSNLNGQYFRSIPQQRQKLKKGIFWKTWRGRYYPLQATTMLIQPMAAEAAS
With B1 the “half-life of intact bLPL” value was “less than 5 min”.
